# Assay: soluble on expression in E. coli; label from the status in PepcDB or PDB records
row,Sequence,soluble on expression in E. coli
1,MSLTITRIETIPMVAPLAREFRGSHYHMTHRATIVTRVHTDAGIIGEAYTGDEHETMFDIDRIIHEELAPTLIGQDAMAIERLWDSGYKVTFDILRDRRLGLVALAAVNTAIWDAVGKALKMPLWKLWGGYRNELPMIAIGGYYGEPLGSIADEMHNYQELGLAGVKFKVGGLSAAEDAARITAAREAAGDDFIICIDANQGYKPAVAVDLSRRIADLNIRWFEEPVEWHNDKRSMRDVRYQGSVPVCAGQTEFSASGCRDLMETGAIDVCNFDSSWSGGPTAWLRTAAIATSYDVQMGHHEEPQVSTHLLASQPHGTIAECFHPDRDPFWWNMITNRPKLNNGTLTLSDRPGLGWDLNWDYIDQYRVSKDEGHHHHHH,soluble
2,ASMTGGQQMGRGSDSKPPYSYAQLIVQAITMAPDKQLTLNGIYTHITKNYPYYRTADKGWQNSIRHNLSLNRYFIKVPRSQEEPGKGSFWRIDPASESKLIEQAFRKRRPR,soluble
3,MKYIINHSNDTAFNIALEEYAFKHLLDEDQIFLLWINKPSIIVGRHQNTIEEINRDYVRENGIEVVRRISGGGAVYHDLNNLNYTIISKEDENKAFDFKSFSTPVINTLAQLGVKAEFTGRNDLEIDGKKFCGNAQAYINGRIMHHGCLLFDVDLSVLANALKVSKDKFESKGVKSVRARVTNIINELPKKITVEKFRDLLLEYMKKEYPEMTEYVFSEEELAEINRIKDTKFGTWDWNYGKSPEFNVRRGIKFTSGKVEVFANVTESKIQDIKIYGDFFGIEDVAAVEDVLRGVKYEREDVLKALKTIDITRYFAGISREEIAEAVVG,not soluble
4,MAHHHHHHMKKHKVPCKKFYRQRAHCNPLSDSYIRYPINCSYVDWRVHYPHLAAHGSDAQAEPINSVEATKHITNTEVERPPDEDPPTLQLNTNKYPIDYNQGPPKCAPHAEVTILDIGCGYGGLLFELSKTFPNKLILGMEIRDKITNYVGEKIHSYRKNYPPQYKNISVVRTNAMKFLPNYIKKNQIEKLFFCFPDPHFKKQNWRRRTITIESLSLYYYLLKRDGLIYFITDVYTLFLWVRFCFSKYPGFRLLSPEECQGDICVRLIHHSSEESKRVSKNKQAMYFCVARKE,not soluble
5,MKKKIAEYEVGEQVDIFLLIKTATKGIASNGKPFLTVILQDPSGDIEAKLWDVSPEVEKQYVAETIVKVAGDILNYKGRIQLRVKQIRVANENEVTDISDFVEKAPVKKEDMVEKITQYIFEMRNPNIQRLTRHLLNKHQNEFLDYPAATKNHHEFVSGLAYHVVSMLDLAKAISNLYPSLDKDLLYAGVILHDLGKVIELSGPISTTYTLEGNLLGHISIMVNEIGKAADELQIDAEEVLILQHIVLSHHGKAEWGSPKPPLVKEAEILHYIDNLDAKMNMMDRALGRTKPGEYTERVFALDNRSFYKPSFHN,not soluble
6,MASPRELTQNPLKKIFMPYSNGRPALHASQRGVCMTNCPTLIVMVGLPARGKTYISKKLTRYLNFIGVPTREFNVGQYRRDMVKTYKSFEFFLPDNEEGLKIRKQCALAALNDVRKFLSEEGGHVAVFDATNTTRERRAMIFNFGEQNGYKTFFVESICVDPEVIAANIVQVKLGSPDYVNRDSDEATEDFMRRIECYENSYESLDEEQDRDLSYIKIMDVGQSYVVNRVADHIQSRIVYYLMNIHVTPRSIYLCRAGESELNLKGRIGGDPGLSPRGREFSKHLAQFISDQNIKDLKVFTSQMKRTIQTAEALSVPYEQFKVLNEIDAGVCEEMTYEEIQDHYPLEFALRDQDKYRYRYPKGESYEDLVQRLEPVIMELERQENVLVICHQAVMRCLLAYFLDKAAEELPYLKCPLHTVLKLTPVAYGCKVESIFLNVAAVNTHRDRPQNVDISRPSEEALVTVPAHQ,soluble
7,MLDDVRLLANGLLQLGQSLREFVHKTKSQTNDIFQKLNIFDRSFYQLSVVTSEIKEEEEKLKGLSQPITVSIHQPEQRAKHTKEA,not soluble
8,MSLAANTQDVEITIPQGASLYQVSERLYDEGVIRSRLWFRYQGKISQADRNIRPGAYTFSPDTDLEEIFTLLQKGVPEQPVIMTIPEGFTLYEIAQRVESLGFGLAEEFIKATQDYFKSRDYSFDTSELYFEMEGYLYPDTYHLKKNQDMKAIVHSLVSPIDAFFSEEYIKRAEELGLSLHEVLTIASIIEREAYHDEERATVSGVIFNRLGIRMSLQIDATVIYGLGEGKEHRNRVLYADLETPNPFNTYMNTGIPPGPIAAPSKASIHATLYPEDHSYLYYVLGEGGHVFSETYQEHLKHVDAYRRRINEGHHHHHH,not soluble
9,MGSDKIHHHHHHMDTAPLLPSSIRDQFTREVVYLNTATCGLPPRVAHEATLAVERDRARGRLTLDIAHQAVERSRAAFARLVGVPVSRVAVGSQASFFVGLVAASLPPGATVVVAEEDFTSVTYPFLAATGRGVTVRPVPLDRIIDAVDTSVDLVSVSVVQSADGRIVDVPALLDAAATHGARVLLDTTQSSGWLPIPADRVDYLVCSAYKWLLGPRGACFFAGTDDALAELTPIAANWFAAEDITSAFYGTELRLASDARRFDLSPAWASCVGLAPALELLADLGEAALGAHNVALANRFCAALGLPPTDSAIVSVAVDAKAQQVLADAGIVAAMRAGRMRCAFHLSTDAADVDRAVEEIGPYLRDANLEEAVRVPGDR,not soluble
10,GPGSMTHDSRTPQGKSRVSGGSSCFPSGYLNNESFDLNSETDHVSANSSTCHPAESYHLLLPRELQTPAQHFTTPEIPEISSHSPLCSALFSSVTEMQHQSVLEVGVASDQGIRSSMEDEHVTVVEPEVCFFGIYDGHGGRQCAEYVRARLHEITLAHECLKTDPRKAISDAFAQVEREFLGQNTNDMSSAGCVCAAAVVQGSVLTVGNVGDCEVVLARAGQPVLLTVKHNPSCNDAEATRVKKAGGCIFNCRVGHPRFNPRMCSLAVSRAVGDAGFKLEEYTNGKPSGIIAVADTSEVLLAKDDEFLILACDGLWDTMSYAEAVELATAYMASGADANSVADQLVGEALRRGTRDNVTAIFVRLGGSAQAGLGDANK,not soluble
11,SLNILFDIGHPKDVNVFKNVIWKLQERGHEIKIVARAKENTKRVLEEYGFEYEVCKYYKTMSGKALGIITNDIHLYNIAKKFQPDIFVSPGSPYSAHVSRLLRKPHIAFSDTEIAGLVMKLTFPFTDKIYTSSSFYLDLGPKQIRFNGYYELAYLHSNYFTPNRDVLKKYNLDEGYIILRLSALSSHHDIGAKGFTFSSEEELIDFIRELERYGRVIVSSETKQWKTISDYELKFKPGDLHDLLYYSKMCIGEGATMASEAAILGVPAIYVSNTHRGYLDELETYELAFTIQEREEALKKAKSLLEEDSLVKNSKEKREKLLKEKTDVVEFMVNAIEGSYKL,soluble
12,MEMEHINENTIRVLIGNEDLADRGITFLDLLGNHKDVENFFYSILEEVDVEDEFQGSEAVTFQVLPKNDGLELFISKNVAMDDLSSLEGLSEVNADVSELIRKQIEADKAAADELDEMEATDETNRNVIFELDNFEAMIQLSKEVFMQSVLTNLYTYNDRYYLQVLFLTDELEKTNVDNEIAQILEFAHKTTVTQDTLVEYGTCIMERSALELTRYYFND,not soluble
13,MVSSDVPKTQRALIFESYGGPLEIKQLPIPQPNEDELLVKMEYSGICHSDVHTWLGDFHYVSKCPMIGGHEGAGSVISVGSKVKNWQIGDKVGIKLVQGNCLNCEYCQTGHEPLCPHVWNIGVQKYGTFQEYATIRDVDAIKIPKSMNMAAAAPVLCGGVTAYKALKESEVKSGQIVAVTGAGGGLGSFAIQYARAMGMRVVAEDIVAHIREITDGGAHGVVNFAAAKVPMEKALEYVRKRGTVVFVGLAKDSKILVDTIPLIFNAVKIKGSIVGSRLDVNEAMDFVARGAVNVPLELVKLEDVAEVYTKMHDGKINSRVVVDFSL,not soluble
14,MNGSRSTFLYLLAAAGLALTPAAQADRGNDVVARLNQLYNDTRQDCGGPSKPAFLCSGVLFRATWPSTDYMFYSISPKSQKSGGVSASYLRKDAKYRKLAYGLKSGFIFDTIFGNPKDHQDYAVLCSFPIDAATDDRAQQGCTDSRRTPNSVEKSCQDINVSTAEQWAANYRQNRGDHSRQCSFDVRDERNTAAGPAFYQSIRAMAQIADESFTTQNELRLAKWEENPPKSPSILAAFYTEDAGLEGARLNQIQWYQSVQAFLPIINMRLPQTRQQDAQFAYDGRKQAIYPTSEKNACERYVESATWVERDDPGFRKKIMTLEVVPTDCGRKIQDNQTNNFFNELVVDHYLDSEWKDNPDNRDSNIGSMRRQLVCHFNVARNKPEWNLEPSRPYTSNEDSIAKGCNNT,not soluble
15,MEKKFIAIYDLESDKIEIIDDKFRFKCIEDCGKCCIYNEIPLREEDIQKILSLGYEEEYFVDYTKMFYRGPKFLGYGMKKRPFDDACVFLDPETKKCRIYEHRPVACRIYPFVLVKHEKKLEIYVKEDPRCPGINSPDGEGIVEIIKKYFIPIIEELKGEINGNRRSRQEDFISFNRRLETVVAAALEHHHHHH,not soluble
16,SLANLSKERQQALLKILHYIQDGGDFTEAKKMFQESFDKVDVSEITAAERELIAQGLDPRKIQYLCNVHADVFKGNIKENAANPDFATPGHPVNTLKQENVVIKSLVNDYLLPNLKKWEKDHSEQTLSKIKQALSDLATIGKHYARKETSFFPLMTKYGITAPPQVMWGVDDKIRRLIKEANNVVNENDVDPAKLRKIIDEVSHEVLEMIFKEEEIMVPMIDEVASPADWGNVKDEEKQIGYTLINPPMNWKPKEE,soluble
17,MKTQFIAGHARLPAGMAAKSLYDTLTITAEIDKKYGVIVEASCTLATEHGRDYVARLLRGHSLRDGIDGLLAELDEGYLGKAHSALCAALKDLYKQYCKMEEKEP,not soluble
18,MEHIRRVAELAREIARNNGLDPERAYLAGLLHDAARDLPEEELRRLAPPENEVEEAHPLALHGRAARALAASWGVRDEEVLEAIEGHVYGVDPENGIGMALYVADVSEPGRGVNEEIRELALAGRLKEAYRLAVRNKVHYLKAKKIPIHPRTLEVYHSL,soluble
19,SDEVYLYSDATTSKIARTVTQKLGFSKASSSGTRLHRGYVEEATLEDKPSQTSHIVFVVHGIGQKMDQGRIIKNTAMMREAARKMEEKHFSNHATHVEFLPVEWRSKLTLDGDTVDSITPDKVRGLRDMLNSSAMDIMYYTSPLYRDELVKGLQQELNRLYSLFCSRNPDFEEKGGKVSIVSHSLGCVITYDIMMGWNPGGLYEQLLQKEEELPDERWMSYEERHLLDELYITKRRLREIEDRLHGLKAPSISQTPALKFKVENFFCMGSPLAVFLALRGIRPGNSGSQDHILPREICNRLLNIFHPTDPVAYRLEPLILKHYSNISPVQIHWYNTSNPLPYEHMKPNFLNPAKEPTSVSDSENIAAIPSPVTSPVLSRRHYGESITNIGKASILGAASIGKGLGGMLFSRFGRSSASQPSEPSKDSLEDDKKPSASPSTTTVATQTLPHSGSGFLDSAYFRLQESFFYLPQLLFPENVMQSKDDSLVELEHRIDFELREGLVESRYWSAVTSHTAYWSSLDVALFLLTFMYKHEHDTEAKPSLGSL,soluble
20,MSLAKILVIDDESTILQNIKFLLEIDGNEVLTASSSTEGLRIFTENCNSIDVVITDMKMPKLSGMDILREIKKITPHMAVIILTGHGDLDNAILAMKEGAFEYLRKPVTAQDLSIAINNAINRKKLLMENERMTQELLAHRNYLQGLHDSAAKILLNMLPKNLPDIEGFNFAVDYKSCDGVGGDMYDVCDIGDYICFYVFDVSHHGILAAVISIIIKSFLQNIEYNYRQGINKRRFPEIVLDLNLELLSNTAQNVFASLFLGFIDKNSKKLYTVSAGHIPQYIMKENGLVPLESTGPILGVFEDSTYKCAVNQLEPGDKVLLFTDGIIESPSDSSDESSDGNQIFGYENMVKVLESCKNEPISTTIDKIMKAVKDFSGNRCTDDMTILGVEVLKENEGHHHHHH,soluble
